{
  "source": "patent US20060257938A1",
  "about": "“Method of screening for drugs that block ligand binding to a lipid binding protein” (priority 2005, published 2006)",
  "molecules": {"B1": {"name": "21D, 72A (protein, listed as Rattus norvegicus)", "chain": "AFDGTWKVDRNENYEKFMEKDGINVVKRKLGAHDNLKLTITQEGNKFTVKESSNFRNIDVVFELGVDFAYSAADGTELTGTWTMEGNKLVGKFKRVDNGKELIAVREISGNELIQTYTYEGVEAKRIFKKE", "modifications": "PEPTIDE (1)...(131) wild-type rat intestinal fatty acid binding protein"}, "B2": {"name": "49M, 72A (protein, listed as Rattus norvegicus)", "chain": "B1 chain with D21M, V49M", "modifications": "PEPTIDE (1)...(131) wild-type rat intestinal fatty acid binding protein"}, "B3": {"name": "31W, 72A (protein, listed as Rattus norvegicus)", "chain": "B1 chain with D21M, G31W", "modifications": "PEPTIDE (1)...(131) wild-type rat intestinal fatty acid binding protein"}, "B4": {"name": "119L, 72A (protein, listed as Rattus norvegicus)", "chain": "B1 chain with D21M, Y119L", "modifications": "PEPTIDE (1)...(131) wild-type rat intestinal fatty acid binding protein"}, "B5": {"name": "14L 38I 72A (protein, listed as Rattus norvegicus)", "chain": "B1 chain with Y14L, D21M, L38I", "modifications": "PEPTIDE (1)...(131) wild-type rat intestinal fatty acid binding protein"}, "B6": {"name": "40M, 72A (protein, listed as Rattus norvegicus)", "chain": "B1 chain with D21M, I40M", "modifications": "PEPTIDE (1)...(131) wild-type rat intestinal fatty acid binding protein"}, "B7": {"name": "115W, 72A (protein, listed as Rattus norvegicus)", "chain": "B1 chain with D21M, Q115W", "modifications": "PEPTIDE (1)...(131) wild-type rat intestinal fatty acid binding protein"}, "B8": {"name": "40V, 72A (protein, listed as Rattus norvegicus)", "chain": "B1 chain with D21M, I40V", "modifications": "PEPTIDE (1)...(131) wild-type rat intestinal fatty acid binding protein"}, "B9": {"name": "126K, 72A (protein, listed as Rattus norvegicus)", "chain": "B1 chain with D21M, R126K", "modifications": "PEPTIDE (1)...(131) wild-type rat intestinal fatty acid binding protein"}, "B10": {"name": "38G, 72A (protein, listed as Rattus norvegicus)", "chain": "B1 chain with D21M, L38G", "modifications": "PEPTIDE (1)...(131) wild-type rat intestinal fatty acid binding protein"}, "B11": {"name": "18K, 72A (protein, listed as Rattus norvegicus)", "chain": "B1 chain with M18K, D21M", "modifications": "PEPTIDE (1)...(131) wild-type rat intestinal fatty acid binding protein"}, "B12": {"name": "70H, 72A (protein, listed as Rattus norvegicus)", "chain": "B1 chain with D21M, Y70H", "modifications": "PEPTIDE (1)...(131) wild-type rat intestinal fatty acid binding protein"}, "B13": {"name": "72A 117A (protein, listed as Rattus norvegicus)", "chain": "B1 chain with D21M, Y117A", "modifications": "PEPTIDE (1)...(131) wild-type rat intestinal fatty acid binding protein"}, "B14": {"name": "106F, 72A (protein, listed as Rattus norvegicus)", "chain": "B1 chain with D21M, R106F", "modifications": "PEPTIDE (1)...(131) wild-type rat intestinal fatty acid binding protein"}, "B15": {"name": "70S, 72A (protein, listed as Rattus norvegicus)", "chain": "B1 chain with D21M, Y70S", "modifications": "PEPTIDE (1)...(131) wild-type rat intestinal fatty acid binding protein"}, "B16": {"name": "70W, 72A (protein, listed as Rattus norvegicus)", "chain": "B1 chain with D21M, Y70W", "modifications": "PEPTIDE (1)...(131) wild-type rat intestinal fatty acid binding protein"}, "B17": {"name": "91Y, 72A (protein, listed as Rattus norvegicus)", "chain": "B1 chain with D21M, G91Y", "modifications": "PEPTIDE (1)...(131) wild-type rat intestinal fatty acid binding protein"}},
  "note": "Residue numbers refer to the chain shown, from its start.",
  "data": [
    {"assay": "Probe fluorescence ratio response to arachidonic acid relative to ADIFAB2", "format": "binding", "conditions": "arachidonic acid; response relative to ADIFAB2", "method_in_brief": "(§1)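 Fluorescently labeled rat intestinal FABP variants were read at two emission wavelengths, near the unbound maximum (about 420 to 480 nm) and the FFA-bound maximum (about 495 to 580 nm). R = Fλ1/Fλ2 after subtracting probe-free intensity; ΔR = R+agent − R0, normalized to ADIFAB2 (rI-FABP-L72A).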", "values": [
      {"molecule": "B1", "DR/DR AA": 1.301},
      {"molecule": "B2", "DR/DR AA": 1.363},
      {"molecule": "B3", "DR/DR AA": 0.993},
      {"molecule": "B4", "DR/DR AA": 1.021},
      {"molecule": "B5", "DR/DR AA": 1.046},
      {"molecule": "B6", "DR/DR AA": 0.993},
      {"molecule": "B7", "DR/DR AA": 1.483},
      {"molecule": "B8", "DR/DR AA": 1.013},
      {"molecule": "B9", "DR/DR AA": 0.625},
      {"molecule": "B10", "DR/DR AA": 0.996},
      {"molecule": "B11", "DR/DR AA": 0.800},
      {"molecule": "B12", "DR/DR AA": 0.751},
      {"molecule": "B13", "DR/DR AA": 1.480},
      {"molecule": "B14", "DR/DR AA": 0.754},
      {"molecule": "B15", "DR/DR AA": 0.625},
      {"molecule": "B16", "DR/DR AA": 0.349},
      {"molecule": "B17", "DR/DR AA": 1.273}
    ]},
    {"assay": "Probe fluorescence ratio response to linolenic acid relative to ADIFAB2", "format": "binding", "conditions": "response relative to ADIFAB2", "method_in_brief": "as §1", "values": [
      {"molecule": "B1", "DR/DR LNA": 1.478},
      {"molecule": "B2", "DR/DR LNA": 1.369},
      {"molecule": "B3", "DR/DR LNA": 1.031},
      {"molecule": "B4", "DR/DR LNA": 1.053},
      {"molecule": "B5", "DR/DR LNA": 1.177},
      {"molecule": "B6", "DR/DR LNA": 1.021},
      {"molecule": "B7", "DR/DR LNA": 1.396},
      {"molecule": "B8", "DR/DR LNA": 1.059},
      {"molecule": "B9", "DR/DR LNA": 1.017},
      {"molecule": "B10", "DR/DR LNA": 0.992},
      {"molecule": "B11", "DR/DR LNA": 0.925},
      {"molecule": "B12", "DR/DR LNA": 0.886},
      {"molecule": "B13", "DR/DR LNA": 0.689},
      {"molecule": "B14", "DR/DR LNA": 0.706},
      {"molecule": "B15", "DR/DR LNA": 0.703},
      {"molecule": "B16", "DR/DR LNA": 0.385},
      {"molecule": "B17", "DR/DR LNA": 1.626}
    ]},
    {"assay": "Probe fluorescence ratio response to linoleic acid relative to ADIFAB2", "format": "binding", "conditions": "response relative to ADIFAB2", "method_in_brief": "as §1", "values": [
      {"molecule": "B1", "DR/DR LA": 1.562},
      {"molecule": "B2", "DR/DR LA": 1.370},
      {"molecule": "B3", "DR/DR LA": 1.147},
      {"molecule": "B4", "DR/DR LA": 1.134},
      {"molecule": "B5", "DR/DR LA": 1.090},
      {"molecule": "B6", "DR/DR LA": 1.086},
      {"molecule": "B7", "DR/DR LA": 1.486},
      {"molecule": "B8", "DR/DR LA": 1.057},
      {"molecule": "B9", "DR/DR LA": 1.039},
      {"molecule": "B10", "DR/DR LA": 1.003},
      {"molecule": "B11", "DR/DR LA": 0.967},
      {"molecule": "B12", "DR/DR LA": 0.929},
      {"molecule": "B13", "DR/DR LA": 1.193},
      {"molecule": "B14", "DR/DR LA": 0.812},
      {"molecule": "B15", "DR/DR LA": 0.794},
      {"molecule": "B16", "DR/DR LA": 0.451},
      {"molecule": "B17", "DR/DR LA": 1.415}
    ]},
    {"assay": "Probe fluorescence ratio response to oleic acid relative to ADIFAB2", "format": "binding", "conditions": "response relative to ADIFAB2", "method_in_brief": "as §1", "values": [
      {"molecule": "B1", "DR/DR OA": 1.345},
      {"molecule": "B2", "DR/DR OA": 1.296},
      {"molecule": "B3", "DR/DR OA": 0.868},
      {"molecule": "B4", "DR/DR OA": 0.778},
      {"molecule": "B5", "DR/DR OA": 0.653},
      {"molecule": "B6", "DR/DR OA": 0.990},
      {"molecule": "B7", "DR/DR OA": 1.352},
      {"molecule": "B8", "DR/DR OA": 1.002},
      {"molecule": "B9", "DR/DR OA": 0.631},
      {"molecule": "B10", "DR/DR OA": 0.945},
      {"molecule": "B11", "DR/DR OA": 0.803},
      {"molecule": "B12", "DR/DR OA": 0.836},
      {"molecule": "B13", "DR/DR OA": 1.080},
      {"molecule": "B14", "DR/DR OA": 0.815},
      {"molecule": "B15", "DR/DR OA": 0.727},
      {"molecule": "B16", "DR/DR OA": 0.381},
      {"molecule": "B17", "DR/DR OA": 1.706}
    ]},
    {"assay": "Probe fluorescence ratio response to palmitic acid relative to ADIFAB2", "format": "binding", "conditions": "response relative to ADIFAB2", "method_in_brief": "as §1", "values": [
      {"molecule": "B1", "DR/DR PA": 0.707},
      {"molecule": "B2", "DR/DR PA": 0.939},
      {"molecule": "B3", "DR/DR PA": 0.618},
      {"molecule": "B4", "DR/DR PA": 0.661},
      {"molecule": "B5", "DR/DR PA": 0.712},
      {"molecule": "B6", "DR/DR PA": 0.691},
      {"molecule": "B7", "DR/DR PA": 0.805},
      {"molecule": "B8", "DR/DR PA": 0.867},
      {"molecule": "B9", "DR/DR PA": 0.356},
      {"molecule": "B10", "DR/DR PA": 0.447},
      {"molecule": "B11", "DR/DR PA": 0.544},
      {"molecule": "B12", "DR/DR PA": 0.567},
      {"molecule": "B13", "DR/DR PA": 0.433},
      {"molecule": "B14", "DR/DR PA": 0.369},
      {"molecule": "B15", "DR/DR PA": 0.416},
      {"molecule": "B16", "DR/DR PA": 0.212},
      {"molecule": "B17", "DR/DR PA": 0.870}
    ]}
  ]
}
